Bridge positions count the residues as written; N and C are the ends. Peptide text beside a SMILES is read from it. * marks the point of attachment. FITC = O=C1OC2(c3ccc(O)cc3Oc3cc(O)ccc32)c2ccc(NC(=S)*)cc21; GABA = NCCCC(=O)O
Legend:
H1299 cells = test: XTT cytotoxicity assay on H1299 cells; type: cell-based; conditions: for IC50: H1299
Procedure: (§1) Cell growth in the presence of PDCs was measured by a commercial XTT assay kit (Cell Proliferation Kit, XTT based; Biological Industries, Israel). The cells (10^4 cells/well) were seeded in 96 well plates and incubated overnight in complete growth medium. The cells were washed and then cultured in 100 μl of new medium containing various concentrations of drug or peptides, for 24 h, 48 h, and 72 h. The XTT solution was added to each well and the plate was further incubated 2-3 h at 37° C. The optical density in the wells was measured at both 480 nm and 680 nm using a TECAN Infinite M200 ELISA reader. All the tests were done in triplicates, and each experiment was repeated three times.
(§2) The cytotoxicity of the Peptide-Drug conjugates (PDCs) was tested in a range of concentrations (0.5-50 μM) against H1299 and DKMG cells using two protocols. In the first protocol, cells were pre-incubated with P6, P9, P6-CPT, and P9-CPT for 6 hours, the medium was removed, and a fresh, drug-free complete medium was added for additional 24 h (designated as 6h24h) or 48 h (6h48h). In the second protocol, cells were exposed continuously to PDCs for 24 h, 48 h, and 72 hours.

DKMG cells = test: XTT cytotoxicity assay on DKMG cells; type: cell-based
Procedure: as §1, §2

[1] = tested on: EGFR+ve cells (H1299, DKMG) versus K562 cells; test: Flow cytometry internalization of peptide-FITC conjugates; type: cell-based; conditions: 2.5 μM FITC-labeled peptide
Source text: Analysis was done with FACS cell analyzer.

[2] = molecular target: T1, epidermal growth factor receptor (EGFR), wild type (human, UniProt P00533 25-1210); test: flow cytometry, 2.5 uM FITC-peptide on H1299 cells (EGFR overexpressing)
T1 construct: whole, on cells; The target is inferred from tumour cell lines that overexpress EGFR, compared with EGFR-negative cells; No purified receptor was used; also called EGFRWT; EGFR WT

[3] = molecular target: T2, EGFR variant III (EGFRvIII), on DKMG glioblastoma cells (human, UniProt P00533 25-1210); test: flow cytometry, 2.5 uM FITC-peptide on DKMG cells (EGFR WT and EGFRvIII)
T2 construct: whole, on cells; DKMG cells express both wild type EGFR (92% of cells) and EGFRvIII (82%); All results on DKMG cells are written against this molecule; also called EGFR mutant; EGFRVIII DKMG

Row | Molecule | binding result [2] | binding result [3] | other results
1 | CC[C@@]1(O)C(=O)OCc2c1cc1n(c2=O)Cc2cc3ccccc3nc2-1 [CPT, (S)-(+)-camptothecin, reference compound] |  |  | IC50 (H1299 cells; Homo sapiens, NCI-H1299, 6 w 48 h (6 h pre-incubation, then 48 h drug-free medium)): 6.7 ± 1.8 µM; IC50 (DKMG cells; 6 w 48 h (6 h pre-incubation, then 48 h drug-free medium)): 8.5 ± 1 µM; IC50 (DKMG cells; 24 h continuous exposure): 25 µM
2 | CC(C)[C@@H]1NC(=O)[C@@H](NC(=O)CCCNC(=S)Nc2ccc3c(c2)C(=O)OC32c3ccc(O)cc3Oc3cc(O)ccc32)CSSC[C@@H](C(N)=O)NC(=O)[C@H](CCCNC(=N)N)NC(=O)CNC(=O)[C@H](Cc2ccccc2)NC(=O)[C@H](CCCNC(=N)N)NC(=O)[C@H](Cc2c[nH]c3ccccc23)NC(=O)[C@H](CCCNC(=N)N)NC1=O [FITC-labeled P3] ({FITC-GABA}-CVRWRFGRC-NH2; disulfide 1-9) |  |  | internalization (flow cytometry) [1]: internalized only into to EGFR+ve cells
3 | CC[C@H](C)[C@@H]1NC(=O)[C@H](Cc2ccc(O)cc2)NC(=O)[C@H](CO)NC(=O)CNC(=O)[C@@H]2CCCN2C(=O)[C@H](C(C)C)NC(=O)[C@H](Cc2cnc[nH]2)NC(=O)[C@@H](N)CSSC[C@@H](C(N)=O)NC1=O [Peptide P6] (H-CHVPGSYIC-NH2; disulfide 1-9) |  |  | cytotoxicity (H1299 cells): did not demonstrate cytotoxicity; IC50 (H1299 cells; 24 h continuous exposure): 27.5 ± 0.8 µM; IC50 (H1299 cells; 48 h continuous exposure): 32 µM; IC50 (H1299 cells; 72 h continuous exposure): 28.8 µM
4 | {FITC-GABA}-CSALWASHC-NH2 (disulfide 1-9; SMILES CC(C)C[C@@H]1NC(=O)[C@H](C)NC(=O)[C@H](CO)NC(=O)[C@@H](NC(=O)CCCNC(=S)Nc2ccc3c(c2)C(=O)OC32c3ccc(O)cc3Oc3cc(O)ccc32)CSSC[C@@H](C(N)=O)NC(=O)[C@H](Cc2c[nH]cn2)NC(=O)[C@H](CO)NC(=O)[C@H](C)NC(=O)[C@H](Cc2c[nH]c3ccccc23)NC1=O, also called FITC-labeled P8) [FITC-labeled cyclic peptide P8, c(CSALWASHC)] | binds | binds | 
5 | {FITC-GABA}-CSAETVESC-NH2 (disulfide 1-9; SMILES CC(C)[C@@H]1NC(=O)[C@H]([C@@H](C)O)NC(=O)[C@H](CCC(=O)O)NC(=O)[C@H](C)NC(=O)[C@H](CO)NC(=O)[C@@H](NC(=O)CCCNC(=S)Nc2ccc3c(c2)C(=O)OC32c3ccc(O)cc3Oc3cc(O)ccc32)CSSC[C@@H](C(N)=O)NC(=O)[C@H](CO)NC(=O)[C@H](CCC(=O)O)NC1=O, also called FITC-labeled P2) [FITC-labeled cyclic peptide P2, c(CSAETVESC)] | binds | binds | 
6 | {FITC-GABA}-CVNAMQSYC-NH2 (disulfide 1-9; SMILES CSCC[C@@H]1NC(=O)[C@H](C)NC(=O)[C@H](CC(N)=O)NC(=O)[C@H](C(C)C)NC(=O)[C@@H](NC(=O)CCCNC(=S)Nc2ccc3c(c2)C(=O)OC32c3ccc(O)cc3Oc3cc(O)ccc32)CSSC[C@@H](C(N)=O)NC(=O)[C@H](Cc2ccc(O)cc2)NC(=O)[C@H](CO)NC(=O)[C@H](CCC(N)=O)NC1=O, also called FITC-P9; FITC-labeled P9) [FITC-labeled cyclic peptide P9, c(CVNAMQSYC)] | binds | binds | 
7 | {FITC-GABA}-CPNDSYHQC-NH2 (disulfide 1-9; SMILES NC(=O)CC[C@@H]1NC(=O)[C@H](Cc2c[nH]cn2)NC(=O)[C@H](Cc2ccc(O)cc2)NC(=O)[C@H](CO)NC(=O)[C@H](CC(=O)O)NC(=O)[C@H](CC(N)=O)NC(=O)[C@@H]2CCCN2C(=O)[C@@H](NC(=O)CCCNC(=S)Nc2ccc3c(c2)C(=O)OC32c3ccc(O)cc3Oc3cc(O)ccc32)CSSC[C@@H](C(N)=O)NC1=O, also called FITC-labeled P5) [FITC-labeled cyclic peptide P5, c(CPNDSYHQC)] | binds | binds | 
8 | {FITC-GABA}-CLAVEVRPC-NH2 (disulfide 1-9; SMILES CC(C)C[C@@H]1NC(=O)[C@@H](NC(=O)CCCNC(=S)Nc2ccc3c(c2)C(=O)OC32c3ccc(O)cc3Oc3cc(O)ccc32)CSSC[C@@H](C(N)=O)NC(=O)[C@@H]2CCCN2C(=O)[C@H](CCCNC(=N)N)NC(=O)[C@H](C(C)C)NC(=O)[C@H](CCC(=O)O)NC(=O)[C@H](C(C)C)NC(=O)[C@H](C)NC1=O, also called FITC-labeled P4) [FITC-labeled cyclic peptide P4, c(CLAVEVRPC)] | binds | binds | 
9 | {FITC-GABA}-CAQYTPGRC-NH2 (disulfide 1-9; SMILES C[C@@H]1NC(=O)[C@@H](NC(=O)CCCNC(=S)Nc2ccc3c(c2)C(=O)OC32c3ccc(O)cc3Oc3cc(O)ccc32)CSSC[C@@H](C(N)=O)NC(=O)[C@H](CCCNC(=N)N)NC(=O)CNC(=O)[C@@H]2CCCN2C(=O)[C@H]([C@@H](C)O)NC(=O)[C@H](Cc2ccc(O)cc2)NC(=O)[C@H](CCC(N)=O)NC1=O, also called FITC-labeled P11) [FITC-labeled cyclic peptide P11, c(CAQYTPGRC)] | binds | binds | 
10 | {FITC-GABA}-CVRWRFGRC-NH2 (disulfide 1-9; SMILES CC(C)[C@@H]1NC(=O)[C@@H](NC(=O)CCCNC(=S)Nc2ccc3c(c2)C(=O)OC32c3ccc(O)cc3Oc3cc(O)ccc32)CSSC[C@@H](C(N)=O)NC(=O)[C@H](CCCNC(=N)N)NC(=O)CNC(=O)[C@H](Cc2ccccc2)NC(=O)[C@H](CCCNC(=N)N)NC(=O)[C@H](Cc2c[nH]c3ccccc23)NC(=O)[C@H](CCCNC(=N)N)NC1=O, also called FITC-labeled P3) [FITC-labeled cyclic peptide P3, c(CVRWRFGRC)] | binds | binds | 
